Test results from article PMC9528458.

Target: Fzd of the reconstituted xWnt8-Fzd complexes (Fzd4 and FZD5) in nanodiscs

occupancy (percent Wnt-bound Fzd after reconstitution): 30 to 40%
B1: Xenopus laevis Wnt8 (ligand)
chain: AWSVNNFLMTGPKAYLTYSASVAVGAQNGIEECKYQFAWERWNCPESTLQLATHNGLRSATRETSFVHAISSAGVMYTLTRNCSMGDFDNCGCDDSRNGRIGGRGWVWGGCSDNAEFGERISKLFVDGLETGQDARALMNLHNNEAGRLAVKETMKRTCKCHGISGSCSIQTCWLQLAEFRDIGNHLKIKHDQALKLEMDKRKMRSGNSADNRGAIADAFSSVAGSELIFLEDSPDYCLKNISLGLQGTEGRECLQSGKNLSQWERRSCKRLCTDCGLRVEEKKTEIISSCNCKFHWCCTVKCEQCKQVVIKHFCARRERDSNMLNTKRKNRGHRR
